Results: patent US20210388110A1
Residue numbers refer to the chain shown, from its start.

B1: TR01H040-E2702GsKsc/H0610-E2704sEpsc/L0208-k0 (bispecific antibody, human IgG4 S228P, kappa, N297A)
heavy 1: QVQLVESGGGLVQPGRSLRLSCAASGFTFSNAWMHWVRQAPGKGLEWVAQIKDKSQNYATYYAESVKGRFTISRADSKNSIYLQMNSLKTEDTAVYYCRYVHYSASYGVDAWGQGTTVTVSSASTKGPSVFPLAPCSRSTSESTAALGCLVKDYFPEPVTVSWNSGALTSGVHTFPAVLQSSGLYSLSSVVTVPSSSLGTKTYTCNVDHKPSNTKVDKRVESKYGPPCPPCPAPEFRGGPKVFLFPPKPKDTLMISRTPEVTCVVVDVSQEDPEVQFNWYVDGVEVHNAKTKPREEQFASTYRVVSVLTVLHQDWLNGKEYKCKVSNKGLPSSIEKTISKAKGQPREPQVYTLPPSQKEMTKNQVSLTCLVKGFYPSDIAVEWESNGQPENNYKTTPPVLDSDGSFFLYSKLTVDKSRWQEGNVFSCSVMHEALHNRYTQKSLSLSP
heavy 2: QVQLVQSGAEVKKPGASVKVSCKASGYTFTDYEMHWIRQPPGQGLEWIGAIDGKTPDTAYSQKFKGRVTLTADKSTSTAYMELSSLTSEDTAVYYCTRFYSYTYWGQGTLVTVSSASTKGPSVFPLAPCSRSTSESTAALGCLVKDYFPEPVTVSWNSGALTSGVHTFPAVLQSSGLYSLSSVVTVPSSSLGTQTYTCNVDHKPSNTKVDKRVESKYGPPCPPCPAPEFRGGPKVFLFPPKPKDTLMISRTPEVTCVVVDVSQEDPEVQFNWYVDGVEVHNAKTKPREEQFASTYRVVSVLTVLHQDWLNGKEYKCKVSNKGLPSSIEKTISKAKGQPREPQVYTLPPSQEEMTKNQVSLTCLVKGFYPSDIAVEWESNGQPENNYKTTPPVLDSDGSFFLYSKLTVDKSRWQEGNVFSCSVMHEALHNHYTQESLSLSP
light: DIVMTQSPLSLPVTPGEPASISCRSSQSPVHSNRNTYLHWYQQKPGQAPRLLIYKVSNRFWGVPDRFSGSGSGTDFTLKISRVEAEDVGVYYCYQGTQVPYTFGQGTKLEIKRTVAAPSVFIFPPSDEQLKSGTASVVCLLNNFYPREAKVQWKVDNALQSGNSQESVTEQDSKDSTYSLSSTLTLSKADYEKHKVYACEVTHQGLSSPVTKSFNRGEC
B2: TR01H040-E2702GsKsc/H0610-E2704sEpsc/L0211-k0 (bispecific antibody, human IgG4 S228P, kappa, N297A)
heavy 1: B1 heavy 1
heavy 2: B1 heavy 2
light: B1 light with S28P, W61S
B3: TR01H040-E2702GsKsc/H0610-E2704sEpsc/L0206-k0 (bispecific antibody, human IgG4 S228P, kappa, N297A)
heavy 1: B1 heavy 1
heavy 2: B1 heavy 2
light: B1 light with W61S
B4: TR01H040-E2702GsKsc/H0610-E2704sEpsc/L0209-k0 (bispecific antibody, human IgG4 S228P, kappa, N297A)
heavy 1: B1 heavy 1
heavy 2: B1 heavy 2
light: B1 light with L38I, W61S
B5: TR01H102-E2702GsKsc/L0011-k0 (antibody, human IgG4 S228P, kappa, N297A, V domains shown)
VH: QVQLVESGGGLVQPGRSLRLSCAASGFTFSNAWMHWVRQAPGKGLEWVAQIKDKSQNYATYFAESVKGRFTISRDDSKNSLYLQMNSLKTEDTAVYYCRYVHYAAGYGVDAWGQGTTVTVSS
VL: DIVMTQSPLSLPVTPGEPASISCRSSQPLVHSNRNTYLHWYQQKPGQAPRLLIYKVSNRFSGVPDRFSGSGSGTDFTLKISRVEAEDVGVYYCGQGTQVPYTFGQGTKLEIKR
B6: TR01H101-E2702GsKsc/L0011-k0 (antibody, human IgG4 S228P, kappa, N297A, V domains shown)
VH: B5 VH with T60V, F62Y
VL: B5 VL
B7: TR01H108-E2702GsKsc/L0011-k0 (antibody, human IgG4 S228P, kappa, N297A, V domains shown)
VH: B5 VH with F62T
VL: B5 VL
B8: TR01H097-E2702GsKsc/L0011-k0 (antibody, human IgG4 S228P, kappa, N297A, V domains shown)
VH: B5 VH with T60L, F62Y
VL: B5 VL
B9: TR01H106-E2702GsKsc/L0011-k0 (antibody, human IgG4 S228P, kappa, N297A, V domains shown)
VH: B5 VH with F62P
VL: B5 VL
B10: TR01H095-E2702GsKsc/L0011-k0 (antibody, human IgG4 S228P, kappa, N297A, V domains shown)
VH: B5 VH with T60F, F62Y
VL: B5 VL

target: extracellular matrix (BD Matrigel); test: ECL on Matrigel-coated plate, relative to MRAH-G1d/MRAL-k0

**Q.** Which ECM binding ratio (standard = 1) does the source give for B1 here?
**A.** 50.4

**Q.** Which ECM binding ratio (standard = 1) does the source give for B2 here?
**A.** 15.5

**Q.** B3 was tested. Which ECM binding ratio (standard = 1) did it give?
**A.** 15.4

**Q.** B4 was tested. Which ECM binding ratio (standard = 1) did it give?
**A.** 7.4

target: Mab Select SuRe Ligand; test: SPR (Biacore T200), SuRe ligand on CM5 chip, antibody 5 ug/mL

**Q.** With B5 as the binder, how does the SuRe binding (RU) read?
**A.** 0.5 RU

**Q.** Which SuRe binding (RU) does the source give for B6 here?
**A.** 0.5 RU

**Q.** How did the SuRe binding (RU) turn out when B7 was run?
**A.** 0.4 RU

**Q.** For B8, which SuRe binding (RU) is on record?
**A.** 0.1 RU

**Q.** With B9 as the binder, how does the SuRe binding (RU) read?
**A.** 0 RU

**Q.** Which SuRe binding (RU) does the source give for B10 here?
**A.** -0.2 RU
